B1: Serpin B10 (protein, UniProt P48595 1-397, looked up)
Serpin B10: MDSLATSINQFALELSKKLAESAQGKNIFFSSWSISTSLTIVYLGAKGTTAAQMAQVLQFNRDQGVKCDPESEKKRKMEFNLSNSEEIHSDFQTLISEILKPNDDYLLKTANAIYGEKTYAFHNKYLEDMKTYFGAEPQPVNFVEASDQIRKDINSWVERQTEGKIQNLLPDDSVDSTTRMILVNALYFKGIWEHQFLVQNTTEKPFRINETTSKPVQMMFMKKKLHIFHIEKPKAVGLQLYYKSRDLSLLILLPEDINGLEQLEKAITYEKLNEWTSADMMELYEVQLHLPKFKLEDSYDLKSTLSSMGMSDAFSQSKADFSGMSSARNLFLSNVFHKAFVEINEQGTEAAAGSGSEIDIRIRVPSIEFNANHPFLFFIRHNKTNTILFYGRLCSP
B2: sp¦Q9P013¦CWC15_HUMAN (protein, UniProt Q9P013 2-229, looked up)
Spliceosome-associated …: TTAARPTFEPARGGRGKGEGDLSQLSKQYSSRDLPSHTKIKYRQTTQDAPEEVRNRDFRRELEERERAAAREKNRDRPTREHTTSSSVSKKPRLDQIPAANLDADDPLTDEEDEDFEEESDDDDTAALLAELEKIKKERAEEQARKEQEQKAEEERIRMENILSGNPLLNLTGPSQPQANFKVKRRWDDDVVFKNCAKGVDDQKKDKRFVNDTLRSEFHKKFMEKYIK
B3: sp¦P30740¦ILEU_HUMAN (protein, UniProt P30740 1-379, looked up)
Leukocyte elastase inhibitor: MEQLSSANTRFALDLFLALSENNPAGNIFISPFSISSAMAMVFLGTRGNTAAQLSKTFHFNTVEEVHSRFQSLNADINKRGASYILKLANRLYGEKTYNFLPEFLVSTQKTYGADLASVDFQHASEDARKTINQWVKGQTEGKIPELLASGMVDNMTKLVLVNAIYFKGNWKDKFMKEATTNAPFRLNKKDRKTVKMMYQKKKFAYGYIEDLKCRVLELPYQGEELSMVILLPDDIEDESTGLKKIEEQLTLEKLHEWTKPENLDFIEVNVSLPRFKLEESYTLNSDLARLGVQDLFNSSKADLSGMSGARDIFISKIVHKSFVEVNEEGTEAAAATAGIATFCMLMPEENFTADHPFLFFIRHNSSGSILFLGRFSSP
B4: sp¦P13693¦TCTP_HUMAN (protein, UniProt P13693 1-172, looked up)
Translationally-controlled …: MIIYRDLISHDEMFSDIYKIREIADGLCLEVEGKMVSRTEGNIDDSLIGGNASAEGPEGEGTESTVITGVDIVMNHHLQETSFTKEAYKKYIKDYMKSIKGKLEEQRPERVKPFMTGAAEQIKHILANFKNYQFFIGENMNPDGMVALLDYREDGVTPYMIFFKDGLEMEKC
B5: Eosinophil cationic protein (protein, UniProt P12724 28-160, looked up)
Eosinophil cationic protein: RPPQFTRAQWFAIQHISLNPPRCTIAMRAINNYRWRCKNQNTFLRTTFANVVNVCGNQSIRCPHNRTLNNCHRSRFRVPLLHCDLINPGAQNISNCTYADRPGRRFYVVACDNRDPRDSPRYPVVPVHLDTTI
B6: sp¦P08246¦ELNE_HUMAN (protein, UniProt P08246 30-267, looked up)
Neutrophil elastase: IVGGRRARPHAWPFMVSLQLRGGHFCGATLIAPNFVMSAAHCVANVNVRAVRVVLGAHNLSRREPTRQVFAVQRIFENGYDPVNLLNDIVILQLNGSATINANVQVAQLPAQGRRLGNGVQCLAMGWGLLGRNRGIASVLQELNVTVVTSLCRRSNVCTLVRGRQAGVCFGDSGSPLVCNGLIHGIASFVRGGCASGLYPDAFAPVAQFVNWIDSIIQRSEDNPCPHPRDPDPASRTH
B7: Annexin A5 (protein, UniProt P08758 2-320, looked up)
Annexin A5: AQVLRGTVTDFPGFDERADAETLRKAMKGLGTDEESILTLLTSRSNAQRQEISAAFKTLFGRDLLDDLKSELTGKFEKLIVALMKPSRLYDAYELKHALKGAGTNEKVLTEIIASRTPEELRAIKQVYEEEYGSSLEDDVVGDTSGYYQRMLVVLLQANRDPDAGIDEAQVEQDAQALFQAGELKWGTDEEKFITIFGTRSVSHLRKVFDKYMTISGFQIEETIDRETSGNLEQLLLAVVKSIRSIPAYLAETLYYAMKGAGTDDHTLIRVMVSRSEIDLFNIRKEFRKNFATSLYSMIKGDTSGDYKKALLLLCGEDD
B8: sp¦P04080¦CYTB_HUMAN (protein, UniProt P04080 1-98, looked up)
Cystatin-B: MMCGAPSATQPATAETQHIADQVRSQLEEKENKKFPVFKAVSFKSQVVAGTNYFIKVHVGDEDFVHLRVFQSLPHENKPLTLSNYQTNKAKHDELTYF
B9: Hematopoietic lineage cell-specific protein (protein, UniProt P14317 1-486, looked up)
Hematopoietic lineage …: MWKSVVGHDVSVSVETQGDDWDTDPDFVNDISEKEQRWGAKTIEGSGRTEHINIHQLRNKVSEEHDVLRKKEMESGPKASHGYGGRFGVERDRMDKSAVGHEYVAEVEKHSSQTDAAKGFGGKYGVERDRADKSAVGFDYKGEVEKHTSQKDYSRGFGGRYGVEKDKWDKAALGYDYKGETEKHESQRDYAKGFGGQYGIQKDRVDKSAVGFNEMEAPTTAYKKTTPIEAASSGTRGLKAKFESMAEEKRKREEEEKAQQVARRQQERKAVTKRSPEAPQPVIAMEEPAVPAPLPKKISSEAWPPVGTPPSSESEPVRTSREHPVPLLPIRQTLPEDNEEPPALPPRTLEGLQVEEEPVYEAEPEPEPEPEPEPENDYEDVEEMDRHEQEDEPEGDYEEVLEPEDSSFSSALAGSSGCPAGAGAGAVALGISAVAVYDYQGEGSDELSFDPDDVITDIEMVDEGWWRGRCHGHFGLFPANYVKLLE
B10: sp¦O43633¦CHM2A_HUMAN (protein, UniProt O43633 1-222, looked up)
Charged multivesicular body …: MDLLFGRRKTPEELLRQNQRALNRAMRELDRERQKLETQEKKIIADIKKMAKQGQMDAVRIMAKDLVRTRRYVRKFVLMRANIQAVSLKIQTLKSNNSMAQAMKGVTKAMGTMNRQLKLPQIQKIMMEFERQAEIMDMKEEMMNDAIDDAMGDEEDEEESDAVVSQVLDELGLSLTDELSNLPSTGGSLSVAAGGKKAEAAASALADADADLEERLKNLRRD
B11: sp¦O75368¦SH3L1_HUMAN (protein, UniProt O75368 1-114, looked up)
Adapter SH3BGRL: MVIRVYIASSSGSTAIKKKQQDVLGFLEANKIGFEEKDIAANEENRKWMRENVPENSRPATGYPLPPQIFNESQYRGDYDAFFEARENNAVYAFLGLTAPPGSKEAEVQAKQQA
B12: sp¦P40121¦CAPG_HUMAN (protein, UniProt P40121 1-348, looked up)
Macrophage-capping protein: MYTAIPQSGSPFPGSVQDPGLHVWRVEKLKPVPVAQENQGVFFSGDSYLVLHNGPEEVSHLHLWIGQQSSRDEQGACAVLAVHLNTLLGERPVQHREVQGNESDLFMSYFPRGLKYQEGGVESAFHKTSTGAPAAIKKLYQVKGKKNIRATERALNWDSFNTGDCFILDLGQNIFAWCGGKSNILERNKARDLALAIRDSERQGKAQVEIVTDGEEPAEMIQVLGPKPALKEGNPEEDLTADKANAQAAALYKVSDATGQMNLTKVADSSPFALELLISDDCFVLDNGLCGKIYIWKGRKANEKERQAALQVAEGFISRMQYAPNTQVEILPQGHESPIFKQFFKDWK

These molecules were tested on human HL60 cells (assay: SWATH-MS proteomics, differential protein representation, akirin2 KO vs WT HL60 cells). Conditions: SWATH-MS, akirin2 KO vs WT HL60 cells; over-represented in KO.
Type: cell-based
Summary of the method: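 First, proteins from wild-type and knockout cells are digested with trypsin by FASP. Next, pooled IDA runs generate a reference ion library. Then six samples of 5 µg each are acquired by data-independent SWATH, and protein areas are normalized to the summed area of all detected proteins.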
B1 was tested, and the “Fold Change” value was 1.749 and the “Log (Fold Change)” value was 0.2428. With B2 the “Fold Change” value was 1.692 and the “Log (Fold Change)” value was 0.2285. For B3, the “Fold Change” value was 1.651 and the “Log (Fold Change)” value was 0.2178. With B4 the “Fold Change” value was 1.634 and the “Log (Fold Change)” value was 0.2132. For B5, the “Fold Change” value was 5.495 and the “Log (Fold Change)” value was 0.7399. For B6, the “Fold Change” value was 1.634 and the “Log (Fold Change)” value was 0.2132. B7 was tested, and the “Fold Change” value was 1.702 and the “Log (Fold Change)” value was 0.231. B8 was tested, and the “Fold Change” value was 1.628 and the “Log (Fold Change)” value was 0.2117. For B9, the “Fold Change” value was 1.764 and the “Log (Fold Change)” value was 0.2466. B10 was tested, and the “Fold Change” value was 1.663 and the “Log (Fold Change)” value was 0.2209. In the case of B11, the “Fold Change” value is reported as 1.672 and the “Log (Fold Change)” value is reported as 0.2233. In the case of B12, the “Fold Change” value is reported as 1.617 and the “Log (Fold Change)” value is reported as 0.2088.

Reference: PMC8298264, “Function of cofactor Akirin2 in the regulation of gene expression in model human neutrophil-like HL60 cells” (Bioscience Reports, 2021)
